Test results taken from patent US20210309722A1 (DUKE UNIVERSITY, published 2021).

B1: GLP1-ELP20%Ala,120 (other)
chain: HGEGTFTSDVSSYLEEQAAKEFIAWLVKGAGVGVPGVGVPGAGVPGVGVPGVGVPGVGVPGVGVPGAGVPGVGVPGVGVPGVGVPGVGVPGAGVPGVGVPGVGVPGVGVPGVGVPGAGVPGVGVPGVGVPGVGVPGVGVPGAGVPGVGVPGVGVPGVGVPGVGVPGAGVPGVGVPGVGVPGVGVPGVGVPGAGVPGVGVPGVGVPGVGVPGVGVPGAGVPGVGVPGVGVPGVGVPGVGVPGAGVPGVGVPGVGVPGVGVPGVGVPGAGVPGVGVPGVGVPGVGVPGVGVPGAGVPGVGVPGVGVPGVGVPGVGVPGAGVPGVGVPGVGVPGVGVPGVGVPGAGVPGVGVPGVGVPGVGVPGVGVPGAGVPGVGVPGVGVPGVGVPGVGVPGAGVPGVGVPGVGVPGVGVPGVGVPGAGVPGVGVPGVGVPGVGVPGVGVPGAGVPGVGVPGVGVPGVGVPGVGVPGAGVPGVGVPGVGVPGVGVPGVGVPGAGVPGVGVPGVGVPGVGVPGVGVPGAGVPGVGVPGVGVPGVGVPGVGVPGAGVPGVGVPGVGVPGVGVPGVGVPGAGVPGVGVPGVGVPGVGVPGVGVPGAGVPGVGVPGVGVPGVGVPGVGVPGAGVPGVGVPGVGVPG
B2: GLP1-ELP20%Ala,120-FGF21 (other)
chain: AAHGEGTFTSDVSSYLEEQAAKEFIAWLVKGAGVGVPGVGVPGAGVPGVGVPGVGVPGVGVPGVGVPGAGVPGVGVPGVGVPGVGVPGVGVPGAGVPGVGVPGVGVPGVGVPGVGVPGAGVPGVGVPGVGVPGVGVPGVGVPGAGVPGVGVPGVGVPGVGVPGVGVPGAGVPGVGVPGVGVPGVGVPGVGVPGAGVPGVGVPGVGVPGVGVPGVGVPGAGVPGVGVPGVGVPGVGVPGVGVPGAGVPGVGVPGVGVPGVGVPGVGVPGAGVPGVGVPGVGVPGVGVPGVGVPGAGVPGVGVPGVGVPGVGVPGVGVPGAGVPGVGVPGVGVPGVGVPGVGVPGAGVPGVGVPGVGVPGVGVPGVGVPGAGVPGVGVPGVGVPGVGVPGVGVPGAGVPGVGVPGVGVPGVGVPGVGVPGAGVPGVGVPGVGVPGVGVPGVGVPGAGVPGVGVPGVGVPGVGVPGVGVPGAGVPGVGVPGVGVPGVGVPGVGVPGAGVPGVGVPGVGVPGVGVPGVGVPGAGVPGVGVPGVGVPGVGVPGVGVPGAGVPGVGVPGVGVPGVGVPGVGVPGAGVPGVGVPGVGVPGVGVPGVGVPGAGVPGVGVPGVGVPGVGVPGVGVPGAGVPGVGVPGVGVPGAYPIPDSSPLLQFGGQVRQRYLYTDDDQDTEAHLEIREDGTVVGAAHRSPESLLELKALKPGVIQILGVKASRFLCQQPDGALYGSPHFDPEACSFRERLLEDGYNVYQSEAHGLPLRLPQKDSPNQDATSWGPVRFLPMPGLLHEPQDQAGFLPPEPPDVGSSDPLSMVEGSQGRSPSYASG
B3: GLP1-ELP20%Ala,120-FGF21 (no AA leader) (other)
chain: HGEGTFTSDVSSYLEEQAAKEFIAWLVKGAGVGVPGVGVPGAGVPGVGVPGVGVPGVGVPGVGVPGAGVPGVGVPGVGVPGVGVPGVGVPGAGVPGVGVPGVGVPGVGVPGVGVPGAGVPGVGVPGVGVPGVGVPGVGVPGAGVPGVGVPGVGVPGVGVPGVGVPGAGVPGVGVPGVGVPGVGVPGVGVPGAGVPGVGVPGVGVPGVGVPGVGVPGAGVPGVGVPGVGVPGVGVPGVGVPGAGVPGVGVPGVGVPGVGVPGVGVPGAGVPGVGVPGVGVPGVGVPGVGVPGAGVPGVGVPGVGVPGVGVPGVGVPGAGVPGVGVPGVGVPGVGVPGVGVPGAGVPGVGVPGVGVPGVGVPGVGVPGAGVPGVGVPGVGVPGVGVPGVGVPGAGVPGVGVPGVGVPGVGVPGVGVPGAGVPGVGVPGVGVPGVGVPGVGVPGAGVPGVGVPGVGVPGVGVPGVGVPGAGVPGVGVPGVGVPGVGVPGVGVPGAGVPGVGVPGVGVPGVGVPGVGVPGAGVPGVGVPGVGVPGVGVPGVGVPGAGVPGVGVPGVGVPGVGVPGVGVPGAGVPGVGVPGVGVPGVGVPGVGVPGAGVPGVGVPGVGVPGVGVPGVGVPGAGVPGVGVPGVGVPGAYPIPDSSPLLQFGGQVRQRYLYTDDDQDTEAHLEIREDGTVVGAAHRSPESLLELKALKPGVIQILGVKASRFLCQQPDGALYGSPHFDPEACSFRERLLEDGYNVYQSEAHGLPLRLPQKDSPNQDATSWGPVRFLPMPGLLHEPQDQAGFLPPEPPDVGSSDPLSMVEGSQGRSPSYASG
B4: GLP1-ELP-FGF21 (after removal of the expression-enhancing sequence) (other)
chain: MSKGPGENLYFQGAHGEGTFTSDVSSYLEEQAAKEFIAWLVKGAGVGVPGVGVPGAGVPGVGVPGVGVPGVGVPGVGVPGAGVPGVGVPGVGVPGVGVPGVGVPGAGVPGVGVPGVGVPGVGVPGVGVPGAGVPGVGVPGVGVPGVGVPGVGVPGAGVPGVGVPGVGVPGVGVPGVGVPGAGVPGVGVPGVGVPGVGVPGVGVPGAGVPGVGVPGVGVPGVGVPGVGVPGAGVPGVGVPGVGVPGVGVPGVGVPGAGVPGVGVPGVGVPGVGVPGVGVPGAGVPGVGVPGVGVPGVGVPGVGVPGAGVPGVGVPGVGVPGVGVPGVGVPGAGVPGVGVPGVGVPGVGVPGVGVPGAGVPGVGVPGVGVPGVGVPGVGVPGAGVPGVGVPGVGVPGVGVPGVGVPGAGVPGVGVPGVGVPGVGVPGVGVPGAGVPGVGVPGVGVPGVGVPGVGVPGAGVPGVGVPGVGVPGVGVPGVGVPGAGVPGVGVPGVGVPGVGVPGVGVPGAGVPGVGVPGVGVPGVGVPGVGVPGAGVPGVGVPGVGVPGVGVPGVGVPGAGVPGVGVPGVGVPGVGVPGVGVPGAGVPGVGVPGVGVPGVGVPGVGVPGAGVPGVGVPGVGVPGVGVPGVGVPGAGVPGVGVPGVGVPGAYPIPDSSPLLQFGGQVRQRYLYTDDDQDTEAHLEIREDGTVVGAAHRSPESLLELKALKPGVIQILGVKASRFLCQQPDGALYGSPHFDPEACSFRERLLEDGYNVYQSEAHGLPLRLPQKDSPNQDATSWGPVRFLPMPGLLHEPQDQAGFLPPEPPDVGSSDPLSMVEGSQGRSPSYASG
B5: ELP20%Ala,120-FGF21 (other)
chain: GVGVPGVGVPGAGVPGVGVPGVGVPGVGVPGVGVPGAGVPGVGVPGVGVPGVGVPGVGVPGAGVPGVGVPGVGVPGVGVPGVGVPGAGVPGVGVPGVGVPGVGVPGVGVPGAGVPGVGVPGVGVPGVGVPGVGVPGAGVPGVGVPGVGVPGVGVPGVGVPGAGVPGVGVPGVGVPGVGVPGVGVPGAGVPGVGVPGVGVPGVGVPGVGVPGAGVPGVGVPGVGVPGVGVPGVGVPGAGVPGVGVPGVGVPGVGVPGVGVPGAGVPGVGVPGVGVPGVGVPGVGVPGAGVPGVGVPGVGVPGVGVPGVGVPGAGVPGVGVPGVGVPGVGVPGVGVPGAGVPGVGVPGVGVPGVGVPGVGVPGAGVPGVGVPGVGVPGVGVPGVGVPGAGVPGVGVPGVGVPGVGVPGVGVPGAGVPGVGVPGVGVPGVGVPGVGVPGAGVPGVGVPGVGVPGVGVPGVGVPGAGVPGVGVPGVGVPGVGVPGVGVPGAGVPGVGVPGVGVPGVGVPGVGVPGAGVPGVGVPGVGVPGVGVPGVGVPGAGVPGVGVPGVGVPGVGVPGVGVPGAGVPGVGVPGVGVPGVGVPGVGVPGAGVPGVGVPGVGVPGAYPIPDSSPLLQFGGQVRQRYLYTDDDQDTEAHLEIREDGTVVGAAHRSPESLLELKALKPGVIQILGVKASRFLCQQPDGALYGSPHFDPEACSFRERLLEDGYNVYQSEAHGLPLRLPQKDSPNQDATSWGPVRFLPMPGLLHEPQDQAGFLPPEPPDVGSSDPLSMVEGSQGRSPSYASG

Experiments:
[1] = target: GLP-1 receptor; experiment: cell-based or functional assay
[2] = target: FGF21 receptor complex (murine β-Klotho and FGF receptor 1) (murine, UniProt Q99N32 1-1043; P16092 22-822); experiment: cell-based or functional assay
FGF21 receptor complex (murine β-Klotho and FGF receptor 1), sequence (Q99N32 whole entry, chain 1 of 2): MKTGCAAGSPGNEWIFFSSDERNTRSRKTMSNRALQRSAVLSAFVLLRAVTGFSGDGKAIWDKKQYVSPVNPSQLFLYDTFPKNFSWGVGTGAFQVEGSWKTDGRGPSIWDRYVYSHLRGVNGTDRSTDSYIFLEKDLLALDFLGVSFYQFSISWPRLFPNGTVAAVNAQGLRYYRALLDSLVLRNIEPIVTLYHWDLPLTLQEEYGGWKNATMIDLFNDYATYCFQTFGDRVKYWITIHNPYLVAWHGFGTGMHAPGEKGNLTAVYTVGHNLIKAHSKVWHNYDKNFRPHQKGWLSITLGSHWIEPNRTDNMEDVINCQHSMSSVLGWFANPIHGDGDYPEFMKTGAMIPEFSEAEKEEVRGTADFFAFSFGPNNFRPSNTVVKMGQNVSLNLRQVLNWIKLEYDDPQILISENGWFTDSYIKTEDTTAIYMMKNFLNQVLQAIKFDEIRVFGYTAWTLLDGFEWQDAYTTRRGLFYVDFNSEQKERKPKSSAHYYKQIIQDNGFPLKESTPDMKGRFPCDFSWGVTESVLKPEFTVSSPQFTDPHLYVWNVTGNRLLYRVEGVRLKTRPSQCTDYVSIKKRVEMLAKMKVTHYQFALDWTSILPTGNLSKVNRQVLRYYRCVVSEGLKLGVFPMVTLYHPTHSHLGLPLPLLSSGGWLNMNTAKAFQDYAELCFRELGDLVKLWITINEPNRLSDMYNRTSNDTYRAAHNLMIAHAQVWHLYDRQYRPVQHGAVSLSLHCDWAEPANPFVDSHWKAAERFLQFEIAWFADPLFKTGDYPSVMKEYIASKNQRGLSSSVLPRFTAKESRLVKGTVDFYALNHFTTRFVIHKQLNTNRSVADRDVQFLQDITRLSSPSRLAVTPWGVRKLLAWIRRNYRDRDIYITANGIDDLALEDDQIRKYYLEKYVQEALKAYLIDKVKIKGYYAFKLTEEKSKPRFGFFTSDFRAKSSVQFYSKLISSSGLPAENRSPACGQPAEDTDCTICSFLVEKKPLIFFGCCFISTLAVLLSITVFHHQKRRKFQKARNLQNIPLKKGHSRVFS
FGF21 receptor complex (murine β-Klotho and FGF receptor 1), sequence (P16092 22-822, chain 2 of 2): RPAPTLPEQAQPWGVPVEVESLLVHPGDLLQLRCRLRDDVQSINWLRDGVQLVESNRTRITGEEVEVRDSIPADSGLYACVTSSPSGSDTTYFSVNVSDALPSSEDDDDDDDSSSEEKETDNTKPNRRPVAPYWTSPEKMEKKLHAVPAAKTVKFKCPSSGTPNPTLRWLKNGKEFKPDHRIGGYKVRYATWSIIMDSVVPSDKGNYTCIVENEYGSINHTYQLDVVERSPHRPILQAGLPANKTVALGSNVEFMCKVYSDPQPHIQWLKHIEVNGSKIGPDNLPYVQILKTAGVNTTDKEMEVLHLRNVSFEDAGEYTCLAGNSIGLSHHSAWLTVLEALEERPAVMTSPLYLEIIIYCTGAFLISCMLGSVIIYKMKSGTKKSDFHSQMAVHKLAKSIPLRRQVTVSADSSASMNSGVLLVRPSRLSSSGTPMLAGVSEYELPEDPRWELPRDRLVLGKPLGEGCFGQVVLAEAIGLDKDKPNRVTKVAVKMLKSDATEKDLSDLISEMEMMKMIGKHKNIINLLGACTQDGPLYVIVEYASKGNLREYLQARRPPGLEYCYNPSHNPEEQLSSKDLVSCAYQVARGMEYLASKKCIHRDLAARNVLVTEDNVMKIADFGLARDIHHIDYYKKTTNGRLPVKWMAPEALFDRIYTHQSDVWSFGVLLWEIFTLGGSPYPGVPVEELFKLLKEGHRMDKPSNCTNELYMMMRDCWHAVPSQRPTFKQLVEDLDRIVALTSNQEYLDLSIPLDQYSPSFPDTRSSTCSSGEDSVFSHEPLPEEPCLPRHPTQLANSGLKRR

| Binder | GLP-1R EC50, cAMP production (cAMP-inducible luciferase reporter) in HEK293 cells expressing GLP-1R [1] [nM] | fold increase of EC50 against native GLP1, cAMP production assay [1] [fold] | FGF21 receptor EC50, ERK1/2 phosphorylation (phospho-ERK1/2 normalized to total ERK1/2) in HEK293 cells expressing FGFR1 and β-Klotho [2] [nM] | also measured |
| --- | --- | --- | --- | --- |
| B1 | 0.0295 | ~10 |  | fold increase of EC50 against native GLP-1, cAMP production assay [1]: 10 fold; fold increase of GLP-1R EC50 against native GLP-1, cAMP production assay [1]: ~10 fold |
| B2 |  |  | 43.2 |  |
| B3 | 0.0239 | ~10 |  |  |
| B4 |  |  |  | EC50, cAMP production (cAMP-inducible luciferase reporter) in HEK293 cells expressing GLP1R [1]: 0.212 nM |
| B5 |  |  | 18.8 | fold increase of FGF21 receptor EC50 against native mouse FGF21, ERK1/2 phosphorylation assay [2]: ~20 fold |
